Series [1] concerns the target T1, GlnR (UniProt F2RFQ1 1-276).
T1 sequence: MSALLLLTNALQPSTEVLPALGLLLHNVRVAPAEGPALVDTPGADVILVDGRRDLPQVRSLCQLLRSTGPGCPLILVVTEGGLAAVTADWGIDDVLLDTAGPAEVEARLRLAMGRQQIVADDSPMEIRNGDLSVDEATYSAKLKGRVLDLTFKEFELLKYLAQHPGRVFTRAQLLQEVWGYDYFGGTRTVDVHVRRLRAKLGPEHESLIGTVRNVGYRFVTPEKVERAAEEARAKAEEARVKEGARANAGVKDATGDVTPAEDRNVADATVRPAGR
Kind of series: EMSA.

Series [2] has as its target T2, MtrA (UniProt F2R521 1-225).
T2 sequence: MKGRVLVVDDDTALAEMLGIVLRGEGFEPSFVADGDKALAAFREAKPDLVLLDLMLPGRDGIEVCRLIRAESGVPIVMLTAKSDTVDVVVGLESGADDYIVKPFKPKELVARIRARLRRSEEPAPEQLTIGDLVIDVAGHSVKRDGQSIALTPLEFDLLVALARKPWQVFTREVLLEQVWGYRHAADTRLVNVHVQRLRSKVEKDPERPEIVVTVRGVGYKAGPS
Kind of series: EMSA.

Where a chain is given by its changes, count along the chain named.

B1: mtrA WT (SVEN2756 WT) (dsDNA)
DNA 1: TACGGTGCAGGCCGACCACGGGGGCCCACGGGGGTGACATCCATGTCTGGCATCAACAC
DNA 2: GTGTTGATGCCAGACATGGATGTCACCCCCGTGGGCCCCCGTGGTCGGCCTGCACCGTA
Regarding B1, the binding result in series [1] and in series [2] was “binds” in each case.

B2: mtrA M1 (SVEN2756 M1) (dsDNA)
DNA 1: B1 DNA 1 with G34A, T35G, A37C, C38T
DNA 2: B1 DNA 2 with G22A, T23G, A25C, C26T
Regarding B2, in series [2], the binding result was “no binding”.

B3: mtrA M3 (SVEN2756 M3) (dsDNA)
DNA 1: B1 DNA 1 with G34A, T35G, A37C, C38T, G45A, T46C, C47T
DNA 2: B1 DNA 2 with G13A, A14G, C15T, G22A, T23G, A25C, C26T
As for B3, in series [2], the binding result is “no binding”.

B4: mtrA M2 (SVEN2756 M2) (dsDNA)
DNA 1: B1 DNA 1 with G45A, T46C, C47T
DNA 2: B1 DNA 2 with G13A, A14G, C15T
As for B4, the binding result in series [2] is reported as “no binding”.

B5: SVEN1860 WT (dsDNA)
DNA 1: GTTTCATCAGTGTTTGACCACCGGGTCACGCCCTGGTAACACCAGTCTGTGAGCCTGGT
DNA 2: ACCAGGCTCACAGACTGGTGTTACCAGGGCGTGACCCGGTGGTCAAACACTGATGAAAC
With B5, the binding result in series [2] was “binds”.

B6: nirB-WT (dsDNA)
DNA 1: GGAGATCAGCGTTCCGTACGGGAAACAGTCGGGATGCCGCCGGGTAACACCGGCCGCGC
DNA 2: GCGCGGCCGGTGTTACCCGGCGGCATCCCGACTGTTTCCCGTACGGAACGCTGATCTCC
As to B6, the binding result in series [2] is listed as “binds”.

These data come from publication PMC9151340.
